The target of the test is human neonatal Fc receptor (FcRn), His-tagged (human) (UniProt P55899). The test is described as follows: BLI. For orientation: In BLI a coated tip is dipped into the sample, and binding shifts an interference pattern.

Where “and” joins values, the source holds several entries; their conditions need not be identical. Equal entries are not always repeated.

Sequence of UniProt P55899 (P55899 24-297, chain 1 of 2): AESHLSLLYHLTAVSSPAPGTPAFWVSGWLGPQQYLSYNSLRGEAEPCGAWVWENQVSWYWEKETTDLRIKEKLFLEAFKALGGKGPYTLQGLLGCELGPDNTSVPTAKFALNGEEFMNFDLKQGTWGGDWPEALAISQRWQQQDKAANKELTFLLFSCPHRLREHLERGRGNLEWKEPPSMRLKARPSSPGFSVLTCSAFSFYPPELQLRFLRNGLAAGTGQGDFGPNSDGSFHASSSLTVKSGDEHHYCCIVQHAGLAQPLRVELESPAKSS
Sequence of UniProt P55899 (P61769 21-119, chain 2 of 2, further chain): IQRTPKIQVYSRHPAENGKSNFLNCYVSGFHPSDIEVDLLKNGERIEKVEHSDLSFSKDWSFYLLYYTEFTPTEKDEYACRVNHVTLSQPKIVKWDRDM

What is called Kd is the constant that tells how readily two partners part at equilibrium. For “RGB-19 tocilizumab (proposed biosimilar, IV and SC drug products) (antibody)”, the Kd is 26.5 to 30.4 nM and 26.3 to 31.7 nM.
With “RoActemra^® tocilizumab (EU-sourced reference medicinal product, IV and SC) (antibody)”, the Kd was 19.2 to 34.5 nM and 17.6 to 35.4 nM.

(Values after article PMC12354568.)
